Tested on: MS2 coat protein
Test: apparent KD of MS2 coat protein; designed switch direction (-1 OFF switch, 1 ON switch): -1; higher = weaker reporter binding
How it was run: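 Normalised cluster fluorescence was curve-fitted, and each design's median over clusters is its apparent KD. Before this, SNAP-549-labelled MS2 coat protein was titrated from 0.7 or 1.5 nM, doubling to 3 µM, over RNA switches transcribed on Illumina chips by stalled E. coli RNA polymerase. Titrations had no input, 200 uM small-molecule ligand, or an oligonucleotide input, and steps lasted 0.8–1.5 h (lowest) to 10–20 min (highest).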

[1] = input ligand: microRNA oligo, concentration not stated
[2] = Eterna round: R95, input ligand: microRNA oligo, concentration not stated

Row | Sequence | apparent KD of MS2 coat protein (input ligand: FMN 200 uM) | apparent KD of MS2 coat protein (input ligand: none) | other results
1 | UAUUAGCAAGUAAGGUCCCACAUGAGGAUCACCCAUGUGCUCGUCACCUCAGGUACGGAGCGGAAACUCCCGAUAUG [Sensor-V1 #91] (Eterna round: R97, puzzle: Sensor, turn-off variant 1) | 81.4 nM | 83.1 nM | 
2 | UAUUAGUAAGGAUAUGAGACGUAGGACGCAAGUCCUACGUCUCAGAAGGUACAUGAGGAUCACCCAUGUCUAUU [Mod of Fisker 10 - Jieux - Exclusion 4] (Eterna round: R97, puzzle: Exclusion 4) | 21.2 nM | 22.2 nM | 
3 | UAUUAUCAAGCAAGAUCCCACAUGAGGAUCACCCAUGUGCUCGUCUUAUUUCUGGCCUUAUUGGUCUCUCGUCUAAU [JR_STOV1_v2_Sub095] (Eterna round: R97, puzzle: Sensor, turn-off variant 1) | 25.8 nM | 26.7 nM | 
4 | UAUUCACAAGCGAGAUCCCACAUGAGGAUCACCCAUGUGCUCGUCUUAUAAGGUACUGUGACGAUAGUCACGGUACC [Mat - Sensor, turn-off var - Eli Mod - D86] (Eterna round: R97, puzzle: Sensor, turn-off variant 1) | 17.4 nM | 15 nM | 
5 | UAUUCGCAAGUGAGAUCCCACAUGAGGAUCACCCAUGUGCUCGUCUUAUAAGGUACUGUGACGAAAGUCACGGUACC [Sensor 3, v1 - 91 v23] (Eterna round: R97, puzzle: Sensor, turn-off variant 1) | 32.4 nM | 36.1 nM | 
6 | UAUUUAAGAGGAUAUACAUGAGGAUCACCCAUGUAUAAUAAAAUACAUGAUUUUUUAUGUAGAAGGCUUGGGUA [-19.1, -18.3 kcal, 36% A] (Eterna round: R97, puzzle: Exclusion 3) | 72 nM | 21.1 nM | 
7 | UAUUUGCAAGCGAGAUCCCACAUGAGGAUCACCCAUGUUCUUGGAAAGUACAGAAUUACUGUACAAGCUCGUCUUCU [mod-Eli/newD-last] (Eterna round: R97, puzzle: Sensor, turn-off variant 1) | 18.9 nM | 20.4 nM | 
8 | UCAAGUAUGUAGGAUAUCGAUGUCCUUGGACAUCGAGAAGGACGUACAUGAGGAUCACCCAUGUAACUUGCAUG [Exclusion 6 - B - 10:e] (Eterna round: R96, puzzle: Exclusion 6) |  |  | apparent KD of MS2 coat protein [1]: 131 nM
9 | UCAAGUAUGUAGGAUAUCGAUGUCCUUGGACAUCGAGAAGGACGUACAUGAGGAUCACCCAUGUAACUUGCAUG [Exclusion 6 - B - 10:e] (puzzle: Exclusion 6) |  |  | apparent KD of MS2 coat protein (Eterna round: R95, input ligand: FMN 200 uM): 103 nM; apparent KD of MS2 coat protein [2]: 138 nM; apparent KD of MS2 coat protein (Eterna round: R95, input ligand: none): 94.5 nM
10 | UCACAAGCUGUGGGUGGUGACAUGAGGAUCACCCAUGUUUUGCUCGUCUUGUGCCGGGCCCGGCGCCCGGGCCCGGC [-42.1, -69.5, A 12%] (Eterna round: R97, puzzle: Sensor, turn-off variant 1) | 929 nM |  | 
11 | UCACAGGCUGUGGGUGGUGACAUGAGGAUCACCCAUGUUUUGCUCGUCUUGUGCCGGGCCCGGCGCCCGGGCCCGGC [-41.8, -69.2, A 10%] (Eterna round: R97, puzzle: Sensor, turn-off variant 1) | 575 nM | 1210 nM | 
12 | UCACCUGGGUCAGGAUAUAAAGGGUCAGGAAGUUUAGAAGGGACUUAGGACAUGAGGAUCACCCAUGUUGAGAACUCGUUUGUA [Eternabot solution 25] (Eterna round: R96, puzzle: Exclusion NG 1) | 46.2 nM | 36.7 nM | apparent KD of MS2 coat protein [1]: 27.5 nM
13 | UCAGGCAAGUGUACAGCCAACAUGAGGAUCACCCAUGUCGGGAGAAGGACUGUUACACACCGCUCGUCUUACUUGCC [Eternabot (Original) Solution 35] (Eterna round: R97, puzzle: Sensor, turn-off variant 1) | 18.3 nM | 23.1 nM | 
14 | UCAGUUUUGCGAGGAUAUCGACCAUUCCUCUUUACAUGAGGAUCACCCAUGUGCUUAUCCUACAACGAGAAGGCGCUCAUACUC [JR_ExcNG2_Sub065] (Eterna round: R96, puzzle: Exclusion NG 2) | 543 nM | 574 nM | apparent KD of MS2 coat protein [1]: 580 nM
15 | UCAUAACAUGAGGAUCACCCAUGUCAGGAUAUGAUACUAUGUACUUCGGUACAUAGUAUCAGAAGGGACAUGCU [Brourd's Ex1-3: 12 (nt 72 G)] (puzzle: Exclusion 1) |  |  | apparent KD of MS2 coat protein [2]: 135 nM
16 | UCAUAUAACGAGGAUAUGCGGGCCGUUUUCCCAGCAGAAGGCGUUACAUGAGGAUCACCCAUGUACCCGGGUAA [EX6 A.29] (Eterna round: R97, puzzle: Exclusion 6) | 18.1 nM | 515 nM | 

Row | Sequence | apparent KD of MS2 coat protein (input ligand: FMN 200 uM) | apparent KD of MS2 coat protein (input ligand: none) | other results
17 | UCAUGUCCAGAGGAUAUGUAGAUCGAGAGAUCAACAGAAGGCUGGACAUGAGGAUCACCCAUGUGCGCCUUCAA [jl-ex3-4.29 ViennaUCT mod] (Eterna round: R97, puzzle: Exclusion 6) | 70.6 nM | 188 nM | 
18 | UCAUGUCCAGAGGAUAUGUAGCGGGAGACCGCAACAGAAGGCUGGACAUGAGGAUCACCCAUGUGCGCCUUCAA [jl-ex3-4.28 ViennaUCT mod] (Eterna round: R97, puzzle: Exclusion 6) | 43 nM | 352 nM | 
19 | UCAUGUCCAGAGGAUAUGUAGCGGGAGACCGCAACAGAAGGCUGGACAUGAGGAUCACCCAUGUGCGCCUUCGA [jl-ex3-4.27 ViennaUCT mod] (Eterna round: R97, puzzle: Exclusion 6) | 35.9 nM | 113 nM | 
20 | UCCCACCGAGGAUAUGACCAUCAGAACAUGAGGAUCACCCAUGUAUUUCUAUGUUCAGAGUCAGAAGGCGGUUUAU [Eternabot (L2) Solution 20] (Eterna round: R97, puzzle: Exclusion 5) | 190 nM | 72.4 nM | 
21 | UCCCGAUACUAGGAUAUGAGUUCACAGGAACGAUCAGAAGGAGUUACAUGAGGAUCACCCAUGUGGGUGUAUUG [Eternabot (L1) Solution 37] (Eterna round: R97, puzzle: Exclusion 6) | 120 nM | 237 nM | 
22 | UCCCGUCUAUGGAGAUUUUACAUGAGGAUCACCCAUGUUGGGACCGCUCUUUGCUUGUCUUCUCCUACUUCGUGUGU [mod-Gracier #4] (Eterna round: R97, puzzle: Sensor, turn-off variant 1) | 82.7 nM | 87.2 nM | 
23 | UCCUAACAUGAGGAUCACCCAUGUCAGGAUAUGAUACUAUGUACUUCGGUACAUAGUAUCAGAAGGGACAUCCU [Ex1-3: 9] (puzzle: Exclusion 1) |  |  | apparent KD of MS2 coat protein [2]: 14.7 nM
24 | UCCUGUUAUGUUAGGAUAUCUGGUUCGACUCGAACAGAGAAGGAACAUGAGGAUCACCCAUGUCCCGGUGAUAA [Eternabot (L2) Solution 19] (Eterna round: R97, puzzle: Brourd's mod of Exclusion 4) | 85.6 nM | 33.1 nM | 
25 | UCCUUACUUGAGGAUCACCCAAGUCAGGAUAUACACCAGAAUAAAUCCCAGCCCUGGCGUAGAAGGGACGGGUG [Esesle] (Eterna round: R97, puzzle: Exclusion 1) | 23 nM | 25.1 nM | 
26 | UCGACGUCGUCAGGAUAUAGUCUUAAUGUCAUGCUUUUGUUCGUACAUGAGGAUCACCCAUGUGGCUAGAAGGGACUAAAGAUU [JR_ExcNG2_Sub015] (Eterna round: R96, puzzle: Exclusion NG 2) | 12.3 nM | 15.8 nM | apparent KD of MS2 coat protein [1]: 10.1 nM
27 | UCGCCGCCCUUGGGCGGCGACAUGAGGAUCACCCAUGUCAAGCUUUUUGCUCGUUUUAUAGCCGGCCUUGGCCGGCA [Olib_3] (Eterna round: R97, puzzle: Sensor, turn-off variant 1) | 27.9 nM | 29.4 nM | 
28 | UCGCUGCGAGGAUAUACGUUUGCGCGUUUUCGUUUGCGCGUACAUGAGGAUCACCCAUGUAGAAGGCGCGCGGC [Apr-15 SS2-11] (puzzle: Exclusion 2) |  |  | apparent KD of MS2 coat protein [2]: 12.2 nM
29 | UCGCUGCGAGGAUAUACGUUUGCGCGUUUUCGUUUGCGCGUACAUGAGGAUCACCCAUGUAGAAGGCGCGCUGC [Apr-15 SS2-10] (puzzle: Exclusion 2) |  |  | apparent KD of MS2 coat protein [2]: 13.3 nM
30 | UCUCGAAGGCAAGGAUAUCCUACAUUGUUCUGGCCCGGGCAUGCUACAUGAGGAUCACCCAUGUGGGAGAAGGUGCGCCACGGC [Design 29] (Eterna round: R96, puzzle: Exclusion NG 2) | 31.6 nM | 43.1 nM | apparent KD of MS2 coat protein [1]: 32.9 nM
31 | UCUCGCGGGCAAGGAUAUCCUACGUUGUUCUGGCCCGUGCAUGUUACAUGAGGAUCACCCAUGUGGGAGAAGGUGCGCCAGGGC [Design 37] (Eterna round: R96, puzzle: Exclusion NG 2) | 51.3 nM | 59.8 nM | apparent KD of MS2 coat protein [1]: 36.7 nM

Reference: the supplement of paper PMC9170038
